Measured values taken from US20220289820.

Test system: D11-CD8stk-IL2Rg_A5-Hinge-IL2Rb
Sequence (chain, as listed by the source, chain 1 of 2): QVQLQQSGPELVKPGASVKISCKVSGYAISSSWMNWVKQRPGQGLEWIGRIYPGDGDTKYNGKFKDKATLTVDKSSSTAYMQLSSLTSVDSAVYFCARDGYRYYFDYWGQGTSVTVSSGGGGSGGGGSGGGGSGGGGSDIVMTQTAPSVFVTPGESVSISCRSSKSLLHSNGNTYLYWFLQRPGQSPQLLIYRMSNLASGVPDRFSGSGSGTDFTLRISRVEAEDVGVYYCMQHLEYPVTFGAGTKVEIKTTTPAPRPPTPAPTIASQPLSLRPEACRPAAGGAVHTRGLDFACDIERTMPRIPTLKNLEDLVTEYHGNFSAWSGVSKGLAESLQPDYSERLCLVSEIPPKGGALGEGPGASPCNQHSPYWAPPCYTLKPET
Sequence (chain, as listed by the source, chain 2 of 2): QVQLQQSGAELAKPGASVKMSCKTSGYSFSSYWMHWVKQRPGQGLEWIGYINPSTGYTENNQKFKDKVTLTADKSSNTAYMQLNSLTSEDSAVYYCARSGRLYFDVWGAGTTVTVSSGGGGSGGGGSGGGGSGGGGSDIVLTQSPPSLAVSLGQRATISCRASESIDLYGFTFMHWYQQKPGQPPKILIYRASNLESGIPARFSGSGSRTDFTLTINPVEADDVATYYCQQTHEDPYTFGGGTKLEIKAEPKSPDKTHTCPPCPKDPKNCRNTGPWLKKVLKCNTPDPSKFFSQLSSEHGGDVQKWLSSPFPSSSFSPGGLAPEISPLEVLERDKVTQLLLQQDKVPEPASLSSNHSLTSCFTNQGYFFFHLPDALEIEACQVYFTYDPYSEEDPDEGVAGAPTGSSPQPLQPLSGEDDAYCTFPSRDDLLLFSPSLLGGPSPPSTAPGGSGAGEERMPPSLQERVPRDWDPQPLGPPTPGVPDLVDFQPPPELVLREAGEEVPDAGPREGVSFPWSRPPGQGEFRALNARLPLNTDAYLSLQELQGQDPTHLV

## prostate-specific antigen (PSA)
  phosphorylation of Y694 of STAT5 (phosphoflow): In the cells expressing the PSA CCR, the presence of PSA lead to increasing STAT5 phosphorylation with time
